In patent publication US20220204643A1 (published 2022):
One block for each binder: values may come before it.

Key:
[1] = target: T1, checkpoint kinase 2, transcript variant 3 (human); assay: protein array
T1 construct: on protein array; also called CHEK2
T1 chain: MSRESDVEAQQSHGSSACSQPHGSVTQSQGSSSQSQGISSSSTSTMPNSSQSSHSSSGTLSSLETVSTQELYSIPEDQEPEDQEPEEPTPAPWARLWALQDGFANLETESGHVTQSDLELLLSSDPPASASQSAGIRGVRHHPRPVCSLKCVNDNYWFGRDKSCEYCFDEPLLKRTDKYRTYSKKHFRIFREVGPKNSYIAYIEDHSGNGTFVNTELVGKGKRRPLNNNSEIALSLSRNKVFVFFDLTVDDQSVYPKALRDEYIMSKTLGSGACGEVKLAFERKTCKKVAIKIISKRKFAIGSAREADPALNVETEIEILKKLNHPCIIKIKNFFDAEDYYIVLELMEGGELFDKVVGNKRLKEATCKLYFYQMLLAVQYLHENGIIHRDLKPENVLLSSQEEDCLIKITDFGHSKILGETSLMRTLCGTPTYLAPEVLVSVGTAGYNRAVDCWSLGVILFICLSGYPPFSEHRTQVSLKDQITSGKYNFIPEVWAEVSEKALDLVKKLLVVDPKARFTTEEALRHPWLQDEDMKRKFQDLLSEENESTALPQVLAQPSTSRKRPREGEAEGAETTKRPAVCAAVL

[2] = target: T2, ankyrin repeat domain 53, transcript variant 2 (human); assay: protein array, with experimental replicate
T2 construct: on protein array; also called ANKRD53
T2 chain: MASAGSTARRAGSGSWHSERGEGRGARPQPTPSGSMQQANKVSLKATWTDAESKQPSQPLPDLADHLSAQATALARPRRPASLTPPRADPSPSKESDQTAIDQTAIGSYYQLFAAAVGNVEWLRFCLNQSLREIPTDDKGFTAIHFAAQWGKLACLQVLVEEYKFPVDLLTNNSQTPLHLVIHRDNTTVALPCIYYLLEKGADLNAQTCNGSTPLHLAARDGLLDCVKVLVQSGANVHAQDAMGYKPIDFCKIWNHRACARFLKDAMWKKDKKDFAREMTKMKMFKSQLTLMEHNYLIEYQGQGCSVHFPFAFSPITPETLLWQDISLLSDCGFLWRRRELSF

[3] = target: aldo-keto reductase family 1 member B, transcript variant 1 (human, UniProt P15121 2-316); assay: protein array
[4] = target: T3, RAD1 checkpoint DNA exonuclease, transcript variant 1 (human, UniProt O60671 1-282); assay: protein array
T3 construct: on protein array
T3 sequence: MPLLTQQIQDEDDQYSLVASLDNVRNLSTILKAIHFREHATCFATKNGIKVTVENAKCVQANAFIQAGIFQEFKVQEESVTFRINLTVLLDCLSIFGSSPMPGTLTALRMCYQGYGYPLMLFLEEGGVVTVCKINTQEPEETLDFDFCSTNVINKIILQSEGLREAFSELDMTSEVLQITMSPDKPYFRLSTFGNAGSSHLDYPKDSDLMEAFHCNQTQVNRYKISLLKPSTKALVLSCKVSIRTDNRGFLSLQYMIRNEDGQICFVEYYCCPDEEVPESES

[5] = target: T4, Microtubule associated scaffold protein 1 (human, UniProt Q9ULD2 875-1270); assay: protein array
T4 construct: on protein array; also called MTUS1
T4 sequence: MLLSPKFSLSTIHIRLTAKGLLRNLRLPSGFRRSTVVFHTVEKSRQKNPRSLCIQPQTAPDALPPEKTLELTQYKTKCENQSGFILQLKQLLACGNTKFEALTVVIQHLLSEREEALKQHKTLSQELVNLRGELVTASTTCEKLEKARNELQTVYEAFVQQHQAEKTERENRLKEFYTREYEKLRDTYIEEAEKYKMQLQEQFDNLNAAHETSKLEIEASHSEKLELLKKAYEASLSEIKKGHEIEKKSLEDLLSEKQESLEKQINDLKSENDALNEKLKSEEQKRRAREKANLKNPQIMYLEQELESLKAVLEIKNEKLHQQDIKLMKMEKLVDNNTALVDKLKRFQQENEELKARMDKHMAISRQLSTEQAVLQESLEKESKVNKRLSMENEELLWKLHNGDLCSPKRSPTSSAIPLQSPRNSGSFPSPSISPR

[6] = target: T5, CDP-diacylglycerol synthase 1 (human, UniProt Q92903 1-461); assay: protein array
T5 construct: on protein array; also called CDS1
T5 sequence: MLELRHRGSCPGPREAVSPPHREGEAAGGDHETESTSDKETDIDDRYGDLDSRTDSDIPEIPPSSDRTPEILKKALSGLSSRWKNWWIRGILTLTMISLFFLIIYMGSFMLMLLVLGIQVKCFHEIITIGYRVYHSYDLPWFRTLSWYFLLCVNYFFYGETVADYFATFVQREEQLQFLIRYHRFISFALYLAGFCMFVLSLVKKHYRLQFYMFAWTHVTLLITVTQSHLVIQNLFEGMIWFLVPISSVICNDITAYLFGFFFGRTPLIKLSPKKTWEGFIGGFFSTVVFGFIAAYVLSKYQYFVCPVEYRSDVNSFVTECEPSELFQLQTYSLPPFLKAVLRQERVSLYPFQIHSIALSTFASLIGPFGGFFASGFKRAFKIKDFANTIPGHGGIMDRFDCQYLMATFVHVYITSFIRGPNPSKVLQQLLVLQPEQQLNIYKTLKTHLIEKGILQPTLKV

[7] = target: T6, dynein axonemal assembly factor 3, transcript variant 3 (human, UniProt Q8N9W5 1-541); assay: protein array
T6 construct: on protein array; also called DNAAF3
T6 sequence: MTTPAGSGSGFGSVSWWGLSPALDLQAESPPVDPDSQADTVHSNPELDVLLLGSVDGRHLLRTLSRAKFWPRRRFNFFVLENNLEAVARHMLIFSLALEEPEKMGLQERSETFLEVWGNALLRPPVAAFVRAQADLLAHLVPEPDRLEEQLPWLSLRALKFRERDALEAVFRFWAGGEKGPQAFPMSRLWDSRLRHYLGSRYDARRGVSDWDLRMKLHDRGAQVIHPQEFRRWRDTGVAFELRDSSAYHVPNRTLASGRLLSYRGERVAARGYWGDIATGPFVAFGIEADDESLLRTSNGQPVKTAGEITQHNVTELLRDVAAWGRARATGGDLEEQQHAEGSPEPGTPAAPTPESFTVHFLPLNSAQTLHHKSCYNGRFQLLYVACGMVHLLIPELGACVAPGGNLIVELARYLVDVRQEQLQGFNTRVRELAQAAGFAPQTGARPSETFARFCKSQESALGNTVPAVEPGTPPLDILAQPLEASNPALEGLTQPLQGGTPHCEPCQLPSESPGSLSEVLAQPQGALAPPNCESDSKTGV

[8] = target: T7, S100 calcium binding protein B (human, UniProt P04271 2-92); assay: protein array, with experimental replicate
T7 construct: on protein array; also called S100B
T7 sequence: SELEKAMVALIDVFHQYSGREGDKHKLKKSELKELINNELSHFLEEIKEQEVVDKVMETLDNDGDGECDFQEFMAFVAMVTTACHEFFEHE

binding result [1]: binds
B1: TKIC10013 (antibody, V domains shown)
VH: EVQLVESGGGLVQPGGSLRLSCAASGFTFNNYWMHWVRQAPGKGLVWVSRISSDGSTTASADSVKGRFTISRDNAKNTLFLQMNSLRAEDTAVYYCAREGAPDDYGDSGTAFDIWGQGTTVTVSS
VL: DIQLTQSPSFLSASVGDRVTITCRASQDISSFLAWYQQKPGKAPDLLIYAASTLQSGVPSRFSGSGSGTEFTLTISSLQPEDFAAYYCQHLTSFPYTFGQGTKLEIKR
notes: VH/VL tied via antigen in summary, not by name in this stretch

binding result [2]: binds
B2: TKIC10019 (antibody, V domains shown)
VH: QLQLQESGPGLVKPSETLSLTCTVSDVSIISSFYYWGWIRQPPGKGLEWIGSVYYSGSTSYNPSLKSRVTISADTSKAHFSLNLRSVTAADTAVYYCVSRGPLGGAAAGPDYWGQGALVIVSS
VL: VSSELTQDPAVSVALGQTVRITCQGDSLRSYYATWYQQKPGQAPLLVIFDKDKRPSGIPDRFSGSSSGNTASLTITGAQPEDEAVYYCNSRDSSAHDHLLFGGGTTLTVLG
notes: as for B1

binding result [3]: binds
B3: TKIC1006 (antibody, V domains shown)
VH: QVQLVQSGAEVKKPGSSVKVSCKTSGGTFSSYTISWVRQAPGQGPEWMGRIIPILNITNYAQKFQGRVTITADKSTSTTYMEMGSLRSEDTAVYFCARSFYGSGLQWGQGTLVTVSS
VL: EIVLTQSPGTLSLSPGERATLSCRASQSVSSSYLVWYQQKAGQAPRLLIYGASSRATGISDRFSGSGSGTDFTLTISRLEPEDFAVYYCQHFRSSPPTYTFGQGTKLEIKR
notes: as for B1

binding result [4]: binds | binding result [5]: binds
B4: THNS1006 (antibody, V domains shown)
VH: QVQLVESGGGVVQPGRSLRLSCAASGFTFSSYGMHWVRQAPGKGLEWVAIISYDGSNKYYADSVKGRFTISRDKSKNTLYLQMNSLRAEDTAVYYCAKSKGNYRDAMDVWGQGTTVTVSS
VL: SYVLTQPPSVSVAPGQTARITCGGNNIGSKSVHWYQQKPGQAPVLVVYDDSDRPSGIPERFSGSNSGNTATLTISRVEAGDEADYYCQVWDSSSDPWVFGGGTKLTVLG
notes: VH/VL only

binding result [6]: binds | binding result [7]: binds
B5: THNS1014 (antibody, V domains shown)
VH: HVQLLQSGPGLVKPSQTLSLTCAISGDSVSSTSGAWNWIRQSPSRGLEWLGRTYYRSQWMNDYAESVRSRITINPDTSKNQFSLQLKSVTPEDTAVYYCTRGWAFTSSDWGQGTQVTVSS
VL: EIVLTQSPGTLSLSPGERATLSCRASQSFDGKSLAWYQQKPGQTPRLLVYGASSRATGIPDRFGGSGSGTDFTLTISRLESEDFAVYFCQQYAYVPITFGQGTRLERKR
notes: VH/VL only

binding result [8]: binds
B6: TKIC10012 (antibody, V domains shown)
VH: VVQLVESGGGLVQPGGSLRLSCAASGFSFSTYWMSWVRQAPGKGLEWVANIKQDGSEKHYVDSVKGRFTISRDNAKNSLYLQMNSLRAEDTAMYYCARRAYSFDYWGQGTLVTVSS
VL: DIQMTQSPSTLSASVGDKVTITCRASQSVGSWLAWYQQKPGKAPKLLISVASSLESGVPSRFSGSGSGTEFTLTVSSLQPDDFATYYCQQYNSYSWTFGQGTKVELKR
notes: as for B1
